Experimental findings from patent US20020037996A1 (INSTITUTE OF PHYSICAL AND CHEMICAL RESEARCH, published 2002) are described below.

This assay has as its target T1, nitrile hydratase (NHase) β subunit derived from Rhodococcus sp. N-771, in the nitrosylated (inactive) enzyme (Rhodococcus sp. N-771, UniProt P13449 1-212).
T1 sequence (looked up): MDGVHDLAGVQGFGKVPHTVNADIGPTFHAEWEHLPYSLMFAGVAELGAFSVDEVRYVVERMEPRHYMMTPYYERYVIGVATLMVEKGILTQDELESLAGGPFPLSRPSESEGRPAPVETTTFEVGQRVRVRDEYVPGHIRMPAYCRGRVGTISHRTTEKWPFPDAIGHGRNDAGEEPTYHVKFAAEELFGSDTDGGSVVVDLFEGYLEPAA
As to the kind of experiment: X-ray crystallography of nitrosylated NHase, 1.7 Å; hetero-tetramer (αβ)2 in the crystal, dimer-tetramer equilibrium in solution by sedimentation equilibrium and dynamic light scattering. An excerpt: Two αβ hetero-dimers existed in an asymmetric unit of the crystal. […] The structural model was crystallographically refined at 1.7 Å resolution (R-factor 0.179, R-free0.228). […] The non-heme iron center was located at the interface between the two subunits in the hetero-dimer.

B1: nitrile hydratase (NHase) α subunit derived from Rhodococcus sp. N-771, in the nitrosylated (inactive) enzyme (enzyme, UniProt P13448 2-207, looked up)
chain: SVTIDHTTENAAPAQAPVSDRAWALFRALDGKGLVPDGYVEGWKKTFEEDFSPRRGAELVARAWTDPEFRQLLLTDGTAAVAQYGYLGPQGEYIVAVEDTPTLKNVIVCSLCSCTAWPILGLPPTWYKSFEYRARVVREPRKVLSEMGTEIASDIEIRVYDTTAETRYMVLPQRPAGTEGWSQEQLQEIVTKDCLIGVAIPQVPTV
modifications: cysteinesulfinic acid (Cys-SO2H) at 112; cysteinesulfenic acid (Cys-SOH) at 114; non-heme iron with bound NO coordinated by Cys109, Cys112, Ser113, Cys114
For B1, the binding result was “binds”.
